Reference: the supplement of paper PMC10201428
± gives the standard deviation of the averaged measurements.

Each sequence was assayed on VchCAST RNA-guided transposition machinery (E. coli BL21(DE3) host, lacZ target) (assay: relative integration efficiency (T-RL orientation) vs wild-type transposon end (log2 (normalized fold change)); transposon end mutated: left end; higher = more efficient transposition).
Description: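 Pooled, barcoded VchCAST (Tn6677) mini-transposon donor libraries; each variable transposon-end sequence sits in a fixed pDonor mini-transposon context (10-bp barcode and cargo not included). Left- or right-end libraries were co-transformed with pEffector (TniQ-Cascade, TnsABC, lacZ crRNA, T7, 0.1 mM IPTG) into E. coli BL21(DE3) and grown 18 h at 37 C. T-LR and T-RL junction amplicons were sequenced; output/input barcode fold change was normalised to the mean of four wild-type barcodes and log2-transformed. Two biological replicates; zero-count/undetected variants carry floor values (-10 / -15), censored here. Barcode uncoupling by PCR recombination adds noise.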

Row | Sequence | relative integration efficiency (log2)
1 | AATGTTGTTGATGCAACCATAAAGTGATATTTAATAATTATTTATAATCAGCAACTTACAACACCCCACCAACGCGCGGTCGCGAGACACCCCACCAACGCCTGGTCGCGGGGGTGTCCGATCTGATTTCAGCAAAACTACTGCAGTAAGAA | -5.66 ± 1.2
2 | AATGTTGTTGATGCAACCATAAAGTGATATTTAATAATTATTTATAACAACCATAAAGTGATATTTACAACCATATATTGATATCTCACAAAACAACCATAAGTTGATATTTTTGTGAATCGAGTATTTCAGCAAAACTACTGCAGTAAGAA | -6.17 ± 1.2
3 | AATGTTGTCAACCATAAAGTGATATTTAATAATTATTTATAATCAGCAACTTAACCACAAAACAACCATATATTGATATCTCACAAAACAACCATAAGTTGATATTTTTGTGAATCGAGTATTTCAGCAAAACTACTGCAGTAAGAAAGTTA | -8.1 ± 1.2
4 | AATGTTGTTGATGCAACCATAAAGTGATATTTAATAATTATTTATAATCAGCAACGGCCAACACCCCACCAACGCGCGGTCGCGAGACACCCCACCAACGCCTGGTCGCGGGGGTGTCCGATCTGATTTCAGCAAAACTACTGCAGTAAGAA | -6.79 ± 1.6
5 | AATGTTGTTGATGCAACCATAAAGTGATATTTAATAATTATTTATAATCAGCAAAGGCCAACACCCCACCAACGCGCGGTCGCGAGACACCCCACCAACGCCTGGTCGCGGGGGTGTCCGATCTGATTTCAGCAAAACTACTGCAGTAAGAA | -6.56 ± 1.3
6 | AATGTTGTTGATGGTTGGTATTTCACTATAAATATAATTATTTATAATCAGCAACTTAACCACAAAACAACCATATATTGATATCTCACAAAACAACCATAAGTTGATATTTTTGTGAATCGAGTATTTCAGCAAAACTACTGCAGTAAGAA | -6.55 ± 1.7
7 | AATGTTGTTGATGCAACCATAAAGTGATATTTAATAATTATTTATAATCAGCAACTTAACCACAAAATGTGAATCGAGTATTTCAGCAAAACTACTGCAACCATATATTGATATCTCACAAAACAACCATAAGTTGATATTTTCAGTAAGAA | -6.39 ± 0.78
8 | AATGTTGTTGATGCAACCATAAAGTGATATTTAAGAATTATGTCGTTCTAAACAAGAGATATTAGAACAACCATATATTGATATCTCACAAAACAACCATAAGTTGATATTTTTGTGAATCGAGTATTTCAGCAAAACTACTGCAGTAAGAA | -4.29 ± 1.2
9 | AATGTTGTTGATGCAACCATAAAGTGATATTTAATAATTATTTATAATCAGCAACAACCATATATTGATATCTCCTTAACCACAAAAACAAAACAACCATAAGTTGATATTTTTGTGAATCGAGTATTTCAGCAAAACTACTGCAGTAAGAA | -6.46 ± 1.4
10 | AATGTTGTTGATGCAACCATAAAGTGAATAAATATAATTATTTATAATCAGCAACTTAACCACAAAACAACCATATATTGAATAGAGACAAAACAACCATAAGTTGAATAAAATGTGAATCGAGTATTTCAGCAAAACTACTGCAGTAAGAA | -4.14 ± 1.6
11 | AATGTTGTTGATGCAACCATAAAGTGATATTTAATAATTATTTATAATCAGCAACTTCCAACACCCCACCAACGCGCGGTCGCGAGACACCCCACCAACGCCTGGTCGCGGGGGTGTCCGATCTGATTTCAGCAAAACTACTGCAGTAAGAA | -4.36 ± 1.2
12 | AATGTTGTTGATGTGTTGATCAACCATAAAGTGATATTTAATAATTATTTATAATCAGCAACTTAACCACAAAACAACCATATATTGATATCTCACAAAACAACCATAAGTTGATATTTTTGTGAATCGAGTATTTCAGCAAAACTACTGCA | -4.39 ± 0.52
13 | AATGTTGTTGATGCAACCATAAAGTGATATTTAATAATTCAACCATAAAGTGATATTTAACTTAACCCAACCATATATTGATATCTCACAAAACAACCATAAGTTGATATTTTTGTGAATCGAGTATTTCAGCAAAACTACTGCAGTAAGAA | -4.15 ± 0.95
14 | AATGTTGTTGATGCAACCATAAAGTGATATTTAATAATTATGGCGCCGACTACCAGGCCAACACCCCACCAACGCGCGGTCGCGAGACACCCCACCAACGCCTGGTCGCGGGGGTGTCCGATCTGATTTCAGCAAAACTACTGCAGTAAGAA | -6.86 ± 1.3
15 | AATGTTGTTGATGCAACCATAAAGTGATATTTAATAATTATTTATAATCCAACCATATATTGATATCTCACAAAACAACCATAAGTTGATATTTTTGTGAATCGAGTATTTCAGCAAAACTACTGCAGTAAGAAAGTTACTTCGTGGTATGG | -6.76 ± 0.87
16 | AATGTTGTTGATGCAACCATAAAGTGATATTTAATAATTATTTATAATCAGACCAGGCCAACACCCCACCAACGCGCGGTCGCGAGACACCCCACCAACGCCTGGTCGCGGGGGTGTCCGATCTGATTTCAGCAAAACTACTGCAGTAAGAA | -6.56 ± 1.8
17 | AATGTTGTTGATGCAACCATAAAGTGATATTTAATAATTATTTATAATCAGCAACTTAACCAACCATATATTGATATCTCCACAAAAACAAAACAACCATAAGTTGATATTTTTGTGAATCGAGTATTTCAGCAAAACTACTGCAGTAAGAA | -2.66 ± 0.88

Row | Sequence | relative integration efficiency (log2)
18 | AATGTTGTTGATGACCAACGCCTGGTCGCGGGGATAATTATTTATAATCAGCAACTTAACCACAAAACAACCATATATTGATATCTCACAAAACAACCATAAGTTGATATTTTTGTGAATCGAGTATTTCAGCAAAACTACTGCAGTAAGAA | -8.86 ± 0.67
19 | AATGTTGTTGATGCAACCATAAAGTGATATTTAATAATTATTTATAATCATACCAGGCCAACACCCCACCAACGCGCGGTCGCGAGACACCCCACCAACGCCTGGTCGCGGGGGTGTCCGATCTGATTTCAGCAAAACTACTGCAGTAAGAA | -6.02 ± 1.1
20 | AATGTTGTTGATGCAACCATAAAGTGATATTTAATAATTATTTATAATCAGCAACTTAACCACAAACACCAACGCGCGGTCGCGAGACACCCCACCAACGCCTGGTCGCGGGGGTGTCCGATCTGATTTCAGCAAAACTACTGCAGTAAGAA | -6.34 ± 0.81
21 | AATGTTGTTGATGCAACCATAAAGGTCGCGGGCCGCCGGCGGGCGCCGACTACCAGGCCAACACCCCACCAACGCGCGGTCGCGAGACACCCCACCAACGCCTGGTCGCGGGGGTGTCCGATCTGATTTCAGCAAAACTACTGCAGTAAGAA | < -10
22 | AATGTTGTTGATGCAACCATAAAGTGATATTTAATAATTATTTATAATCAGCAACTTAACCACAAAAGTTGGTATATAACTATAGAGACAAAAGTTGGTATTCAACTATAAAATGTGAATCGAGTATTTCAGCAAAACTACTGCAGTAAGAA | -6.13 ± 2.2
23 | AATGTTGTTGATGCAACCATAAAGTGATATTTAATAATTATTTATAATCAGCAACTTAACCCAACCATATATTGATATCTCACAAAACAACCATAAGTTGATATTTTTGTGAATCGAGTATTTCAGCAAAACTACTGCAGTAAGAAAGTTAC | -7.05 ± 1.7
24 | AATGTTGTTGATGTGTTGACAACCATAAAGTGATATTTAATAATTATTTATAATCAGCAACTTAACCACAAAACAACCATATATTGATATCTCACAAAACAACCATAAGTTGATATTTTTGTGAATCGAGTATTTCAGCAAAACTACTGCAG | -2.23 ± 0.63
25 | AATGTTGTTGATGCAACCATAAAGTGATATTTAATAATTATTTCAACCATAAAGTGATATTTAACTTCAACCATATATTGATATCTCACAAAACAACCATAAGTTGATATTTTTGTGAATCGAGTATTTCAGCAAAACTACTGCAGTAAGAA | -6.43 ± 0.89
26 | AATGTTGTTGATGCAACCATAAAGTGATATTTAATAATTATTTATAATCAGCAACTTAACCACAAAACAACCATATATTGATAACAAAACAACCATAAGTTGATATTTTTGTGAATCGAGTATTTCAGCAAAACTACTGCAGTAAGAAAGTT | -4.08 ± 0.82
27 | AATGTTGTTGATGCAACCATAAAGTGATATTTAATAATTATTTATAATCAGCAACCATATATTGATATCTCCAACTTAACCACAAAAACAAAACAACCATAAGTTGATATTTTTGTGAATCGAGTATTTCAGCAAAACTACTGCAGTAAGAA | -6.03 ± 0.52
28 | AATGTTGTTGATGCAACCATAAAGTGATATTTAATAATTCGGGCGCCGACTACCAGGCCAACACCCCACCAACGCGCGGTCGCGAGACACCCCACCAACGCCTGGTCGCGGGGGTGTCCGATCTGATTTCAGCAAAACTACTGCAGTAAGAA | -7.09 ± 1
29 | AATGTTGTTGATGCAACCATAAAGTGAGCGGGCCGCCGGCGGGCGCCGACTACCAGGCCAACACCCCACCAACGCGCGGTCGCGAGACACCCCACCAACGCCTGGTCGCGGGGGTGTCCGATCTGATTTCAGCAAAACTACTGCAGTAAGAA | -8.13 ± 0.57
30 | AATGTTGTTGATGCAACCATAAAGTGATATTTAATAATTATTTATAACAACCATATATTGATATCTCACAAAACAACCATAAGTTGATATTTTTCAGCAACTTAACCACAAAATGTGAATCGAGTATTTCAGCAAAACTACTGCAGTAAGAA | -5.63 ± 0.81
31 | AATGTTGTTGATGCAACCATAAAGTGATATTTAATAATTATTTATAATCAGCAACTTAACCACAAAACAACCATATATGTCGCGAGACACCCCACCAACGCCTGGTCGCGGGGGTGTCCGATCTGATTTCAGCAAAACTACTGCAGTAAGAA | -6.15 ± 1.3
32 | AATGTTGTTGATGCAACCATAAAGTGATATTTAATAATTATTTATACAACCATATATTGATATCTCACAAAACAACCATAAGTTGATATTTTTGTGAATCGAGTATTTCAGCAAAACTACTGCAGTAAGAAAGTTACTTCGTGGTATGGGAG | -6.01 ± 0.81
33 | AATGTTGTTGATGCAACCATAAAGTGCGCGGGCATAATTATTTATAATCAGCAACTTAACCACAAAACAACCATATATTGCGCGAGAACAAAACAACCATAAGTTGCGCGGGGTGTGAATCGAGTATTTCAGCAAAACTACTGCAGTAAGAA | -7.87 ± 2.2
